Measured values: paper PMC8634136 (The EMBO Journal, 2021)

T1: MCM3 (human, UniProt P25205-1 1-808)
T1 construct: human MCM3, subunit of hsCMG; the construct lacks the 45 additional N-terminal residues of the longer isoform used in PDB 6XTX; Subunit of the CMG helicase in the replisome structure; source: Hi5 insect cells co-infected with baculoviruses for MCM2-7, GINS and CDC45; purified as hsCMG (Flag M2, Strep-Tactin XT, MonoQ)
T1 sequence: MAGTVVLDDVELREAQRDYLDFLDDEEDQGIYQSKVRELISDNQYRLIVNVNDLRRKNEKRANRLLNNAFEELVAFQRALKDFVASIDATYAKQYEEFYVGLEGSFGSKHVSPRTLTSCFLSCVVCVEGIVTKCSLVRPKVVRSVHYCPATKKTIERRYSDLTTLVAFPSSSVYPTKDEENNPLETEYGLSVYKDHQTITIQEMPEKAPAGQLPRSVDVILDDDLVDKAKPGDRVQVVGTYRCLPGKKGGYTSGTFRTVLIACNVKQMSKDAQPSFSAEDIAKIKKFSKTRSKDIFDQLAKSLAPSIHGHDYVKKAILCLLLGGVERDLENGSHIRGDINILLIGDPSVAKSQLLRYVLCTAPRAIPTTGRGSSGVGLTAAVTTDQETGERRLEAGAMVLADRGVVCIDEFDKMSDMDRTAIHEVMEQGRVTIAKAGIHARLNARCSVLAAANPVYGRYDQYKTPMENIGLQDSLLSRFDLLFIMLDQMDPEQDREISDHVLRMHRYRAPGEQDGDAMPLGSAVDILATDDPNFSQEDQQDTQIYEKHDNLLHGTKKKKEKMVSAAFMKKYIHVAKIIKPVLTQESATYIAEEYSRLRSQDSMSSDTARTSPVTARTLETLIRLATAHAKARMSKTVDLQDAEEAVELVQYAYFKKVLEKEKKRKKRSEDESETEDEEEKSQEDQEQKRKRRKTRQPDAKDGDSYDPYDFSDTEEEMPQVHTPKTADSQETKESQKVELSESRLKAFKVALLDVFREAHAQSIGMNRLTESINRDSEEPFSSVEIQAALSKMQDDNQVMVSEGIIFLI

B1: TIMELESS (natural protein, human)
chain: MDLHMMNCELLATCSALGYLEGDTYHKEPDCLESVKDLIRYLRHEDETRDVRQQLGAAQILQSDLLPILTQHHQDKPLFDAVIRLMVNLTQPALLCFGNLPKEPSFRHHFLQVLTYLQAYKEAFASEKAFGVLSETLYELLQLGWEERQEEDNLLIERILLLVRNILHVPADLDQEKKIDDDASAHDQLLWAIHLSGLDDLLLFLASSSAEEQWSLHVLEIVSLMFRDQNPEQLAGVGQGRLAQERSADFAELEVLRQREMAEKKTRALQRGNRHSRFGGSYIVQGLKSIGERDLIFHKGLHNLRNYSSDLGKQPKKVPKRRQAARELSIQRRSALNVRLFLRDFCSEFLENCYNRLMGSVKDHLLREKAQQHDETYYMWALAFFMAFNRAASFRPGLVSETLSVRTFHFIEQNLTNYYEMMLTDRKEAASWARRMHLALKAYQELLATVNEMDISPDEAVRESSRIIKNNIFYVMEYRELFLALFRKFDERCQPRSFLRDLVETTHLFLKMLERFCRSRGNLVVQNKQKKRRKKKKKVLDQAIVSGNVPSSPEEVEAVWPALAEQLQCCAQNSELSMDSVVPFDAASEVPVEEQRAEAMVRIQDCLLAGQAPQALTLLRSAREVWPEGDVFGSQDISPEEEIQLLKQILSAPLPRQQGPEERGAEEEEEEEEEEEEELQVVQVSEKEFNFLDYLKRFACSTVVRAYVLLLRSYQQNSAHTNHCIVKMLHRLAHDLKMEALLFQLSVFCLFNRLLSDPAAGAYKELVTFAKYILGKFFALAAVNQKAFVELLFWKNTAVVREMTEGYGSLDDRSSSRRAPTWSPEEEAHLRELYLANKDVEGQDVVEAILAHLNTVPRTRKQIIHHLVQMGLADSVKDFQRKGTHIVLWTGDQELELQRLFEEFRDSDDVLGHIMKNITAKRSRARIVDKLLALGLVAERRELYKKRQKKLASSILPNGAESLKDFCQEDLEEEENLPEEDSEEEEEGGSEAEQVQGSLVLSNENLGQSLHQEGFSIPLLWLQNCLIRAADDREEDGCSQAVPLVPLTEENEEAMENEQFQQLLRKLGVRPPASGQETFWRIPAKLSPTQLRRAAASLSQPEEEQKLQPELQPKVPGEQGSDEEHCKEHRAQALRALLLAHKKKAGLASPEEEDAVGKEPLKAAPKKRQLLDSDEEQEEDEGRNRAPELGAPGIQKKKRYQIEDDEDD
notes: Stood in the structure as a subunit of m3; residues 7-803 modelled (527-684 not visualised)

Columns and labels:
Conditions in all cases: both partners purified
CLASPIN = biological target: T2, CLASPIN (human, UniProt Q9HAW4 1-1339); test: cryo-EM structure; replisome reconstituted on fork DNA with AMP-PNP, isolated on a glycerol gradient with glutaraldehyde and BS3; 3.2 Å overall; a sample without CLASPIN solved at 3.4 Å
T2 construct: CLASPIN, human; Only residues 284-319, 525-540 and 592-618 are modelled in the structure; source: Hi5 insect cells (baculovirus), purified (Flag M2, Superose 6)

TIMELESS = biological target: B1; test: as above
MCM3 = biological target: T1, MCM3; test: cryo-EM structure; core human replisome (100 nM hsCMG with 1.5-fold excess of AND-1, TIMELESS-TIPIN, Pol ε, CLASPIN) on fork DNA with AMP-PNP; glycerol gradient with glutaraldehyde and BS3; consensus map 3.2 Å and multi-body map of Pol ε/CDC45/GINS; PDB 7PFO

T2 sequence (Q9HAW4 whole entry, the tested form may be a part): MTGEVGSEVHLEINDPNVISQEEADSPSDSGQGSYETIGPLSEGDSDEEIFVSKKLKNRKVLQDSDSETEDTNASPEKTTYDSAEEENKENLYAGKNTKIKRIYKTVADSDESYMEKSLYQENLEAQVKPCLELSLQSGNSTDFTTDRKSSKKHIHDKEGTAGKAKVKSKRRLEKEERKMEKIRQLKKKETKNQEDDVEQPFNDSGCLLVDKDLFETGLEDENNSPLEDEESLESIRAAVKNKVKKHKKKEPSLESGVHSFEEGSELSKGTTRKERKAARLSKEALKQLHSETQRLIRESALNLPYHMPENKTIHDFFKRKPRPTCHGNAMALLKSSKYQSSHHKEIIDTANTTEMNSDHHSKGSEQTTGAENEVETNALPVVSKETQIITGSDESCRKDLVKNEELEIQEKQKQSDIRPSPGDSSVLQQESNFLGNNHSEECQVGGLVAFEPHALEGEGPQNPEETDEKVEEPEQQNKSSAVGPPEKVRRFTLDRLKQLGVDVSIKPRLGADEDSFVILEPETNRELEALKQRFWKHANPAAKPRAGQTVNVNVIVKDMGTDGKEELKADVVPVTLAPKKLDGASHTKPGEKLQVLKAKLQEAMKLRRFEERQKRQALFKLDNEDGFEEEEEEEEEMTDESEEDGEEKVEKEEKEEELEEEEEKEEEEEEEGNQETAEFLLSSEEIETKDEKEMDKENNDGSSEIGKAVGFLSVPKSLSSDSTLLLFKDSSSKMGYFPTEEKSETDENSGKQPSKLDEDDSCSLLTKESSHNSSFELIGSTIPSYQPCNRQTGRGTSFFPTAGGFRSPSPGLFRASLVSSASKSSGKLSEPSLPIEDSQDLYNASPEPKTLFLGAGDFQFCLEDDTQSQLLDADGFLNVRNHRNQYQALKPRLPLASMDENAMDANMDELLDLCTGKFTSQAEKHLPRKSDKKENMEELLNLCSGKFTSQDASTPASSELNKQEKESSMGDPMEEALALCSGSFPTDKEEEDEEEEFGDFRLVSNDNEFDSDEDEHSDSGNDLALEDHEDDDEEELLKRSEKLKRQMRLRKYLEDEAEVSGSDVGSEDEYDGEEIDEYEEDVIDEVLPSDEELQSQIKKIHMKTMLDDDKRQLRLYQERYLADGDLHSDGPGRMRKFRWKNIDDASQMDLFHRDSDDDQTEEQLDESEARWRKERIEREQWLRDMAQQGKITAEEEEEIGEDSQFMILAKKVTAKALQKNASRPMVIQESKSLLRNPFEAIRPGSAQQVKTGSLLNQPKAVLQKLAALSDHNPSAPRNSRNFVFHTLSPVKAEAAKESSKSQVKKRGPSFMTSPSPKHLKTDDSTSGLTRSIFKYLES

| binding result (CLASPIN) | binding result (TIMELESS) | binding result (MCM3) | Binder |
| --- | --- | --- | --- |
| binds | – | – | B1 |
| binds | binds | – | MCM6 (natural protein, human, MCM6, human; Stood in the structure as a subunit of m1; source: Hi5 insect cells, purified as a subunit of hsCMG) MDLAAAAEPGAGSQHLEVRDEVAEKCQKLFLDFLEEFQSSDGEIKYLQLAEELIRPERNTLVVSFVDLEQFNQQLSTTIQEEFYRVYPYLCRALKTFVKDRKEIPLAKDFYVAFQDLPTRHKIRELTSSRIGLLTRISGQVVRTHPVHPELVSGTFLCLDCQTVIRDVEQQFKYTQPNICRNPVCANRRRFLLDTNKSRFVDFQKVRIQETQAELPRGSIPRSLEVILRAEAVESAQAGDKCDFTGTLIVVPDVSKLSTPGARAETNSRVSGVDGYETEGIRGLRALGVRDLSYRLVFLACCVAPTNPRFGGKELRDEEQTAESIKNQMTVKEWEKVFEMSQDKNLYHNLCTSLFPTIHGNDEVKRGVLLMLFGGVPKTTGEGTSLRGDINVCIVGDPSTAKSQFLKHVEEFSPRAVYTSGKASSAAGLTAAVVRDEESHEFVIEAGALMLADNGVCCIDEFDKMDVRDQVAIHEAMEQQTISITKAGVKATLNARTSILAAANPISGHYDRSKSLKQNINLSAPIMSRFDLFFILVDECNEVTDYAIARRIVDLHSRIEESIDRVYSLDDIRRYLLFARQFKPKISKESEDFIVEQYKHLRQRDGSGVTKSSWRITVRQLESMIRLSEAMARMHCCDEVQPKHVKEAFRLLNKSIIRVETPDVNLDQEEEIQMEVDEGAGGINGHADSPAPVNGINGYNEDINQESAPKASLRLGFSEYCRISNLIVLHLRKVEEEEDESALKRSELVNWYLKEIESEIDSEEELINKKRIIEKVIHRLTHYDHVLIELTQAGLKGSTEGSESYEEDPYLVVNPNYLLED |
| – | – | binds | POLE2 (natural protein, human, human POLE2, subunit of Pol ε; residues 1-527 modelled; Purified with POLE1, POLE3 (C-terminal TEV CBP tag) and POLE4) MAPERLRSRALSAFKLRGLLLRGEAIKYLTEALQSISELELEDKLEKIINAVEKQPLSSNMIERSVVEAAVQECSQSVDETIEHVFNIIGAFDIPRFVYNSERKKFLPLLMTNHPAPNLFGTPRDKAEMFRERYTILHQRTHRHELFTPPVIGSHPDESGSKFQLKTIETLLGSTTKIGDAIVLGMITQLKEGKFFLEDPTGTVQLDLSKAQFHSGLYTEACFVLAEGWFEDQVFHVNAFGFPPTEPSSTTRAYYGNINFFGGPSNTSVKTSAKLKQLEEENKDAMFVFLSDVWLDQVEVLEKLRIMFAGYSPAPPTCFILCGNFSSAPYGKNQVQALKDSLKTLADIICEYPDIHQSSRFVFVPGPEDPGFGSILPRPPLAESITNEFRQRVPFSVFTTNPCRIQYCTQEITVFREDLVNKMCRNCVRFPSSNLAIPNHFVKTILSQGHLTPLPLYVCPVYWAYDYALRVYPVPDLLVIADKYDPFTTTNTECLCINPGSFPRSGFSFKVFYPSNKTVEDSKLQGF |
